Publication PMC4778124, “A continuous sirtuin activity assay without any coupling to enzymatic or chemical reactions” (Scientific Reports, 2016)
Primed or numbered codes have the meaning given here. *: point of attachment. thiosuccinyl = lysine reacted with methyl 3-[(methylthio)thiocarbonyl]propanoate, then 1 M NaOH (thioxo peptide), O=C(O)CCC(=S)*; thioacetyl = lysine reacted with ethyl dithioacetate (thioxo peptide), CC(=S)*; Bz′ = not defined here

Biological target: T1, human sirtuin 2 (human, UniProt Q8IXJ6 1-389)
T1 construct: sirtuin 2 (Sirt2), human; also called Sirt2
T1 sequence (looked up): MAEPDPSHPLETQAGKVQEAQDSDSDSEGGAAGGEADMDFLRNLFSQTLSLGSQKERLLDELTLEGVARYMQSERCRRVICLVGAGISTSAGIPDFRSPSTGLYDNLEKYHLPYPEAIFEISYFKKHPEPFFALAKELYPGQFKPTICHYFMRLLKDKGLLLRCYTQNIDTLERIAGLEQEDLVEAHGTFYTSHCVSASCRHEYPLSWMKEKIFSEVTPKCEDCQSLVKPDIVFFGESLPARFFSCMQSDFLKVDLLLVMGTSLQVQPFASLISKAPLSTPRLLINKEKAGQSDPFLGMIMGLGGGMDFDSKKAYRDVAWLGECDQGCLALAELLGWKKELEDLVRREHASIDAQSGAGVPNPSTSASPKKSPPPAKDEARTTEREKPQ
Assay: enzyme inhibition kinetics (continuous fluorescence activity assay); 96-well MTP fluorescence reader; kcat and KM for substrate 3 recorded at varying inhibitor concentrations (0.01-600 μM); 500 μM NAD+; 20 mM TRIS/HCl pH 7.8, 150 mM NaCl, 5 mM MgCl2; 37 °C; Ki from competitive and non-competitive inhibition models
Conditions: both partners purified

B1: thioxo peptide 11 based on the CPS1 peptide (peptide)
peptide: {Bz′}-GVLK(thiosuccinyl)EYGV-NH2
notes: source: synthetic peptide
B1 gave a Ki of 50 ± 9.9 µM.

B2: thioxo peptide 10 based on the CPS1 peptide (peptide)
peptide: {Bz′}-GVLK(thioacetyl)EYGV-NH2
notes: source: synthetic peptide
Binder B2 has a Ki of 0.3 ± 0.1 µM.
